According to US20050123563A1 (INTEGRAL MOLECULAR, published 2005):

B1: CXCR4 (chemokine receptor, GPCR) incorporated into lipoparticles (receptor, UniProt P61073 1-352, looked up)
chain: MEGISIYTSDNYTEEMGSGDYDSMKEPCFREENANFNKIFLPTIYSIIFLTGIVGNGLVILVMGYQKKLRSMTDKYRLHLSVADLLFVITLPFWAVDAVANWYFGNFLCKAVHVIYTVNLYSSVLILAFISLDRYLAIVHATNSQRPRKLLAEKVVYVGVWIPALLLTIPDFIFANVSEADDRYICDRFYPNDLWVVVFQFQHIMVGLILPGIVILSCYCIIISKLSHSKGHQKRKALKTTVILILAFFACWLPYYIGISIDSFILLEIIKQGCEFENTVHKWISITEALAFFHCCLNPILYAFLGAKFKTSAQHALTSVSRGSSLKILSKGKRGGHSSVSTESESSSFHSS
notes: whole, on cells; also called CXCR4-lipoparticles; CXCR4-containing lipoparticles
B2: CXCR3 incorporated into lipoparticles (receptor, UniProt P49682 1-368, looked up)
chain: MVLEVSDHQVLNDAEVAALLENFSSSYDYGENESDSCCTSPPCPQDFSLNFDRAFLPALYSLLFLLGLLGNGAVAAVLLSRRTALSSTDTFLLHLAVADTLLVLTLPLWAVDAAVQWVFGSGLCKVAGALFNINFYAGALLLACISFDRYLNIVHATQLYRRGPPARVTLTCLAVWGLCLLFALPDFIFLSAHHDERLNATHCQYNFPQVGRTALRVLQLVAGFLLPLLVMAYCYAHILAVLLVSRGQRRLRAMRLVVVVVVAFALCWTPYHLVVLVDILMDLGALARNCGRESRVDVAKSVTSGLGYMHCCLNPLLYAFVGVKFRERMWMLLLRLGCPNQRGLQRQPSSSRRDSSWSETSEASYSGL
notes: whole, on cells

What was measured:
[1] = molecular target: T1, SDF-1 (unlabeled chemokine, 8 kDa) (UniProt P48061-2 22-89); assay: radioligand competition on CXCR4 lipoparticles: increasing cold SDF-1 against 0.1 nM radiolabeled SDF-1α, 1 h at room temperature, filtration through GF/C filters, gamma counting [box at the upper right]
T1 construct: also called 8 kDa natural ligand (SDF-1); cold ligand (Peprotech)

[2] = molecular target: T2, Protein A (ProA) beads bearing no antibody (Staphylococcal, UniProt P38507 37-477); assay: fluorescence microscopy of Protein A beads without antibody, probed with fluorescent lipoparticles containing CXCR4
T2 construct: also called no antibody control

[3] = molecular target: T3, Radiolabeled SDF-1α (Perkin-Elmer) (UniProt P48061-2 22-89); assay: radioligand binding: fixed radiolabeled SDF-1α with CXCR3 lipoparticles, filtration, gamma counting
T3 construct: also called radioligand

| Binder | Kd [1] | binding result [2] | binding result [3] |
| --- | --- | --- | --- |
| B1 | 8.53 nM | no binding | – |
| B2 | – | – | no binding (tested: about 1.25 ug lipoparticles) |
